The results in this text go back to the DeepSol protein solubility set.

A short description of this data set: soluble on expression in E. coli; label from the status in PepcDB or PDB records.
On to “MSLNDNNTILGFDVNLICDFFLNTERQGPGSPEVTLKALSFIDNLTNKSLIADLGCGTGGQTMILAQHVPGKITGIDFFPGFIERFNKNAEKLNLQNRVKGIVGSMDDLSFEKDSLDLIWSEGAIYNIGFERGLKEWRNYLKPGGYLAVSESVWFTDQRPAEIHDFWMSAYTEIDTVPNKVAQIQKAGYIPVATFILPENCWIEHYFAPQAKAEEIFRRKHAGSRIVEELITSNHHEAELYSKYKAYYGYAFFICKKGFSLREGHHHHHH”, for which the “soluble on expression in E. coli” value was “soluble”.

“GSHGGIEGVKGAASGVVGELARARLALDERGQKLSDLEERTAAMMSSADSFSKHAHEMMLKYK”: the “soluble on expression in E. coli” value is recorded as “soluble”.

Turning to “MFDRYESGERAILVHVFFSQDRDTDDLLEFESLVSSAGIESLQVVTGSRKAPHPKYFVGEGKAEEIAQAVKETGAFVVLFNHALTPAQERNLERLCECRVIDRTGLILDIFAQRARTHEGKLQVELAQLRHLATRLVRGWTHLERQKGGIGLRGPGETQLETDRRLLRNRISQILLRLERVEKQREQGRRSRVRADVPTVSLVGYTNAGKSTLFNKITSAGVYVADQLFATLDPTLRRIQVDDVGDTVLADTVGFIRQLPHDLVAAFKATLQETRQASLLLHVVDAADPRLDENIDAVNDVLAEIEADEIPALLVMNKIDMLDDFVPRIDRNEENLPIRVWLSAQTGDGIPLLFQALTERLSGEIAQYTLHLPPQAGRLRSRFYQLQAIEKEWIEEDGQIGLVIRMPIADWRRLCKKEQELMDYIALEHHHHHH”, the “soluble on expression in E. coli” value is listed as “not soluble”.

“MDEEYDAIVLGTGLKECIISGMLSVSGKKVLHIDRNNYYGGESASLTPLEQLYEKFHGPQAKPQQEMGRGRDWNVDLIPKFLMANGPLVKLLIHTGVTRYLEFKSIEASFVVKGGKIYKVPADEMEALATSLMGMFEKRRFKKFLVWVQQFDENKEDTWQGLDPHNSTMQQVYEKFGLDENTADFTGHALALYRDDEHKNQPYAPAVEKIRLYSDSLARYGKSPYLYPLYGLGELPQGFARLSAIYGGTYMLDKPVDEIVMENGKAIGVKCGDEIVRGKQIYCDPSYAKDRVKKTGQVVRAICLLNHPIPNTNDAQSCQIIIPQKQVGRHYDIYISCCSNTNMVTPKGWYLAMVSTTVETANPEAEVLPGLQLLGAIAEKFIQISDVYEPSDLGSESQIFISQSYDATTHFETTCKDVLNMFERGTTKEFDFTNITHLSLNDQE”: the “soluble on expression in E. coli” value is “not soluble”.

Take “MGSDKIHHHHHHMRIAPLPPLQCLVAFESAVRHASFTKAAAELHLTQSAISRQIAQLEDFLGRSLFVREHRALRLTIAGEGYAKHVQWLLASCSEATLDVMKRYGDMELTIACSSGVAVLWLTPRLGAFRAAHPNVRIRMIVRDGLASLSPAEFDVGLYYIRQRAEPHFTARRLFDEDVYPVCSPGYLAGRVLTPAGLVHETLLVQEDGQRQWMSWSEWFRLNHVQMPASPQAVVVNHYPQLVQMAILGQGVVLGWRHMIDACLSEGLLVRATQASASHGGGYYVVSPNDRSQNQAARLFTRWVFEQAEAQMGRAAS”: the “soluble on expression in E. coli” value was “not soluble”.

In the case of “MGSDKIHHHHHHMPASDVIIAGSGPAGAMLARDLTRAGASVRILERGGETPASAPNLWKLWRRKEALHVAPGVALLRGTRVGGGSTVFYHTAISPPLEMFSHHGVEMAQDLAAVLAELPHQPLQAPLLGPTAQRIIDAARSLGLPWQTLPKMIDQELCGHGDCPPAAFWSAASLLAQAMQLGAELETGIQVNRVLFQNGRAVGVEALQKGQLRRFMGGTVILSAGGVASPVILQRSGIREAGRGFFCDPLRVGVAIGRGNGLQEAEMPMTAGFVDREAGYMLTDMTVPPNFYRAFAWAAGRVDMLAHYRHSMMIMVKIRDEISGEVNANGRVWRHFSAAEKNRMRNGMGLAADILRAAGGRRIFFSPWLAAHPGGSVRLGELLDERLSCCTPNLHVCDASVIPEPWGLPPTLTVLSLAKYLGRILLG”, the “soluble on expression in E. coli” value is “not soluble”.

For the sequence “MIKAIFTRQKNGQLSSVTLTGHAGSGKHGFDIVCASVSTLAINFVNSLEVLADCQALVDLNDVEGGYMAITIPPHDNKEEVQLLFESFLLGMTSLAKDSSKFVNTQVI”, the “soluble on expression in E. coli” value is recorded as “not soluble”.

Consider “MSLSSDMEGGMITMKANDTTKYLIHAEIEAEGVVERPDVVGAIFGQTEGLLGGDLDLRELQKTGRIGRIEVKIESKGGRSFGEIKVPSSLDKVETAILAAALETIERVGPCSAKIKVLKIEDVRASKRKRIVERAMNILREHFEEPEIESERIVEIVRQAIRADEIVEYGEEKLPAGPAIDESDAIIVVEGRADVLNLLKHGIKNVIAVEGTNIPKTIVELSKKKTVTAFLDGDRGGDLILKELLQVAEVDYVARAPEGKEVEDLTQKEILKSLRNKVPVEQLHVLKKEAKEGREREKLAEMPKDSISDVLRKHTESVKGRLTARVLDRNLNVIKEVPVRDLVKILKTNNMKGSAIVFDGIITQRLIDLAAKKEFDYIVGVRLGSVVKVPTSLRVITFDQLEGHHHHHH”, for which the “soluble on expression in E. coli” value is on record as “not soluble”.

Turning to “MGASGRICTVVPVEDAGEAAMLALSSPTGCVELRLDFYPGDPGEALELLATRLHSPARVVVTLRSAGHGGLDRRARGERRAVLARLEDLAPEGWLVDYEVEDLHASSGCSGCIASSHPTTPPTPRRALEEAAVAERLGASAYKLVYPGVEPWEQAAAARLVAEAGGFATSFTLGPGTLASRLTALALGAPLVFGSHPRAPLDGVPQSSEIMELYLRMGLGES”, the “soluble on expression in E. coli” value was “not soluble”.

With “GPGSMPQPSALQSARSFLGTVAEDSVRCDRGLDSVPHNEAGLRCLAADGNWSAVAELAERLSAAATEETAEGLSRRLQFILVQVTANFHMQRYNVAKKLVESLGDLNSERYIDPKTSESTVPFSLRFISAIIPLYIGTKMDSQQRLYALLRDCRENLGKYASAVWVARIKRVQRALVVSHYQVEQYSEALRIYNELIAVEGNADGDDMGSYALLRRMLHLHQFAALALFCGNASFANSIYQSIASINVSEAAPCVQNFHECLVDFNTGIWLSFNGKVQDSMKVFCDVATKSREYYCALGASQLMSTDVPTVSNRQLKFVADGCDALALSELCRHAFHQLLVNATTSHVVTMPYEALRGKAPATMLGGTIRTMEDYLRNDPAGLLSSDAFISNGVRLYTLEGGTQMRRLELLNDLIEVFRCDRASAPPIDKIV”, the “soluble on expression in E. coli” value is reported as “not soluble”.

For the sequence “MRILFIGDVVGSLGREALATYVPKLKKKYRPQVTIANGENAASGRGITGKIYKKFLQDGVDVVTMGNHTWDNKDIFEFIDDAKKMVRPANFPEDVPGQGMVFVKVNQLELAVINLQARTFMVPLEDPFKKAAELVAIARKRTPLIFVDFHGETTSEKQAMSWFLDGQVSAVVGTHTHVQTNDARILPKGTAFLSDVGMTGPYDGILGMKREPIIEKFMTALPKRFEVVETGRTILSACILEIDDQTGQAKMIEPIQISEDRPFQE”, the “soluble on expression in E. coli” value is recorded as “not soluble”.

For “MAHHHHHHMYTRLTELFFISHTFRGRMSSTFCLQPSMMRPLLEQQRRFTSIISRFSSTVTSHVSSLADTHFMPLSEQCITEPRRPYPRRVSMQENLAERLTLQRSLRAHLVPLQVIVSKEKLYIELVWPSAALRAVENQKETMAHTVKGAAADGDDDGNDAALHHAMESPARTVSSGLSQRRPLEEHRTRFLAEFLRAYSPSTDVIGSDVLIYGRRGITITDVIPVGNYALRIVFSDGHSGGIYPYEYLFHLGCEKYSRMREYIRRLRAKHKSRDPPKRAPSQRLSRSRSAQRAEGRHMNSHGQDDQ”, the “soluble on expression in E. coli” value is given as “not soluble”.

On to “MSLGNYAKPIGTAPVTANPTDYSSALVCLNQYARTNRIVAPRIAIGRIADYTGKEESDGSGRKVTQGASLMAVSAFAKAGMPLVERFDTSVSEFELKYANNKLISDRPNPAPDAPADFRKILAGQVPGSDFYVIGGITELNYNIRSAGIDAYAGDKDTDGLKGNFRRRVFIMNIALDLRLVNTRTLEVVDVISYQKQVVGREVSAGVFDFLNGNLFDISAGRGALEPMQLAVRALIERATVEMAANLYGMPGPESCLRFDPFGDATVGQTGAFTPAYNNLGTNNAQTRDDPSRWNARRDPDIRDAKRGRYEGHHHHHH”, for which the “soluble on expression in E. coli” value is on record as “not soluble”.

Consider “MGSDKIHHHHHHMEYNDVVEAVISALKKAHTELPEDVVTAIKKAYDSEENDIAKRNLEAILKNIEAAKKLGVPMCQDTGIPVFFVEVGRELCLDFDLKEAIVEGVRKATAEIPLRPNAVHPITRENSGDNTGLGIPQINVELVKGDELRMVVMPKGAGSENVSALKMMLPTQVDKIKDFVVETVKNAGGKPCPPIFVGVGVGSTFDGAAKLAKKALLRNVLEMNDFELELLEAVNELGIGAMGLGGKYTALAVLVEFGHCHTASLPVAVNIQCWANRRAEVVLR”, for which the “soluble on expression in E. coli” value is “not soluble”.
